Earlier results as cited in article PMC6824834.

Biological target: Glu165 (UniProt position 165, VVVAYEPVWAI)
Conditions: substrate-bound, closed (desolvated) active site

**Q.** Which pKa does the source give for “Triosephosphate isomerase (TIM) (Not stated for the quoted values; residue numbering is that of Saccharomyces cerevisiae TIM (yTIM))” here?
**A.** >6
